Assay results from a protein production outcome set (Wang et al. 2014).

Assay: label from the status in PepcDB records
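Also: failed if final PepcDB status was selected cloned or expressed and not failed if soluble or beyond.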

| Sequence | protein production |
| --- | --- |
| FFTPPHIVQLCVRLVDDFADGMTFHDPTVGSGGMLTEAAKYYREAQGGDPSKLTFTGQEINPDIAAIARMNLSLHTLNGEIERGDSLASPGFTDGDDLERFDRVLANFPFSADWAKDDLQDDQYGRFDWHTKLPRADRGDYAFIMHIAEQLKEPDCGDESGGKAAIVIPHGVLFRKHEQRYRQPMLENDLVEAIVGLPENLFQNNSIPSAILVLNTDKPADREGEVQFIHAADEAFYEELSNQNELTDDGLDHIVENFDDWTTE | failed |
| FGLETVSENELAHSEEELRIILSESYKSGEINQSEFKYVNKIFEFDDRLAKEIMIPRTEIVSLPHDIKISEMMDIIQIEKYTRYPVEEGDKDNIIGVINIKEVLTACISGEVSVDSTISQFVNPIIHVIESAPIQDLLVKMQKERVHMAILSDEYGGTAGLVTVEDIIEEIVGEIR | not failed |
| FGVWVLVPRSFPRCVWFQRSMAVVIRLQGLPIVAGTMDIRHFFSGLTIPDGGVHIVGGELGEAFIVFATDEDARLGMMRTGGTIKGSKVTLLLSSKTEMQNMIELSRRRFETANLDIPPANASRSGPPPSSGMSSRVNLPTTVSNFNNPSPSVVTATTSVHESNKNIQTFSTASVGTAPPNMGASFGSPTFSSTVPSTASPMNTVPPPPIPPIPAMPSLPPMPSIPPIPVPPPVPTLPPVPPVPPIPPVPSVPPMTPLPPMSGMPPLNPPPVAPLPAGMNGSGAPMNLNNNLNPMFLGPLNPVNPIQMNSQSSVKPLPINPDDLYVSVHGMPFSAMENDVRDFFHGLRVDAVHLLKDHVGRNNGNGLVKFLSPQDTFEALKRNRMLMIQRYVEVSPATERQWVAAGGHITFKQNMGPSGQTHPPPQTLPRSKSPSGQKRSRSRSPHEAGFCVYLKGLPFEAENKHVIDFFKKLDIVEDSIYIAYGPNGKATGEGFVEFRNEADYKAALCRHKQYMGNRFIQVHPITKKGMLEKIDMIRKRLQNFSYDQREMILNPEGDVNSAKVCAHITNIPFSITKMDVLQFLEGIPVDENAVHVLVDNNGQGLGQALVQFKNEDDARKSERLHRKKLNGREAFVHVVTLEDMREIEKNPPAQGKKGLKMPVPGNPAVPGMPNAGLPGVGLPSAGLPGAGLPSTGLPGSAITSAGLPGAGMPSAGIPSAGGEEHAFLTVGSKEANNGPPFNFPGNFGGSNAFGPPIPPPGLGGGAFGDARPGMPSVGNSGLPGLGLDVPGFGGGPNNLSGPSGFGGGPQNFGNGPGSLGGPPGFGSGPPGLGSAPGHLGGPPAFGPGPGPGPGPGPIHIGGPPGFASSSGKPGPTVIKVQNMPFTVSIDEILDFFYGYQVIPGSVCLKYNEKGMPTGEAMVAFESRDEATAAVIDLNDRPIGSRKVKLVLG | not failed |
| FPPGTPLELGKEIAVYRIDGPVFFGAAERFATFLRDEPEVKYLILRLRFVPNMDTTGLVALEDIYHDLERHNCRLILTGLQPEVKQLLERTGLLKTIGLSNCFETTTDAICSISPQIQRCSQP | failed |
| FSTFDSKYDRFLRGEEKLTDQEELGRVLISSTQFTNCNTCHEIRGAKGLEDGLFTNHKYFNIGVPANTSVRAVNGSKPDAVDLGLAQNPAVAGDPAQRGKFKVPTLRNVAVTGPYMHNGVFKDLRTVVLFYVKYKSKKPSRQINPETGKTWDAPEVPENIAMTELTSAPALDDKRVDAIVAFLKTLTDRRYEHLLPKEDGQTAAPT | failed |
| FTLEEEDITGTWYVKAMVVDKDFPEDRRPRKVSPVKVTALGGGNLEATFTFMREDRCIQKKILMRKTEEPGKFSAYGGRKLIYLQELPGTDDYVFYCKDQRRGGLRYMGKLVGRNPNTNLEALEEFKKLVQHKGLSEEDIFMPLQTGSCVLEH | failed |
| FTPDYIFTSKIDTSYVRQDIVPEINGWNIDRWIEEIACNDNQVVKLLWQVINDSMNGNYTRKKAIFFVGDGNNGKGTFQELLSNVIGYSNIASLKVNEFDERFKLSVLEGKTAVIGDDVPVGVYVDDSSNFKSVVTGDPVLVEFKNKPLYRATFKCTVIQSTNGMPKFKDKTGGTLRRLLIVPFNANFNGIKENFKIKEDYIKNQQVLEYVLYKAINLDFET | failed |
| GAPFRSTVTLQPTSGSLVNLTEWPPFVITLDDVELVHFERVQFHLRNFDMIFVFKEYNKKVAMVNAIPMNMLDHVKEWLNSCDIRYSEGVQSLNWQKIMKTITDDP | failed |
| GAPGPCGLARQNSTSLTGKPGALPANLDDMKVAELKQELKLRSLPVSGTKTELIERLRAYQDQISPVPGAPKAPAATSILHKAGEVVVAFPAARLST | failed |
| GASDGGGSIRIPASFSGLIGLKPSRGSMPVGPEGWRGWQGASIDFALTISMRDTKALFYGLRGSHSGAPYQAPLAEWQTHPKKQRLKIALCTASPIGSLISPEATQAAKQAADFLAAAGHEIIEIPYPVDGAALIRSYYQMNGAETTAMMNSIQQGLGRPIRKEEIESFSWTMHQFGQKIPAATYVHSLQLWDQAAVTMEELFQKFDLFLSPTTAFSAPKINEDLQSEHIRQRMAQAAELTEAELAELIYDYFDKSLQLTPYTQLANLTGQPAISLPTHVTATGLPLGIQLLAARGREDLLFQVGEQFEQEGK | failed |
| GCTLSAEERAALERSKAIEKNLKEDGISAAKDVKLLLLGAGESGKSTIVKQMKIIHEDGFSGEDVKQYKPVVYSNTIQSLAAIVRAMDTLGIEYGDKERKADAKMVCDVVSRMEDTEPFSAELLSAMMRLWGDSGIQECFNRSREYQLNDSAKYYLDSLDRIGAADYQPTEQDILRTRVKTTGIVETHFTFKNLHFRLFDVGGQRSERKKWIHCFEDVTAIIFCVALSGYDQVLHEDETTNRMHESLKLFDSICNNKWFTDTSIILFLNKKDIFEEKIKKSPLTICFPEYTGPSAFTEAVAYIQAQYESKNKSAHKEIYTHVTCATDTNNIQFVFDAVTDVIIAKNLRGCGLY | failed |
| GDFGRHSITSGGSGGGGFRQRGSSGSSSRHTERGYSSGRSGASSYNGREGGGSGFNRREVYGGGRDSSRYSSGSSASYGRTGGQSAGRFRSRSPVGNHRF | failed |
| GDIGGIAQITSSLFLGRGSVASNRHLLQARGITCIVNATIEIPNFNWPQFEYVKVPLADMPHAPIGLYFDTVADKIHSVSRKHGATLVHCAAGVSRSATLCIAYLMKFHNVCLLEAYNWVKARRPVIRPNVGFWRQLIDYERQLFGKSTVKMVQTPYGIVPDVYEKESRHLMPYWG | failed |
| GERCEPIELLSINLPEESSSRIIDIVTRRKGEMVMMENKNDRVFMEFHIPSRGIIGLNNAVLTASAGEAVIAHRFLEFQPWKGEIERRSNGSIIALESGTAYAYALNNLQSRGRFFISPQEEVYAG | failed |
| GFSHRSQQLLEQSVAKQLPLLERKYHQKNLEAAMVVTDIASGEIRALVGGRESGYAGFNRALNAKRHIGSLIKPAIYVAALERYQQYNFATILDDKAITLRNGTGKKWQPKNYDGKYRGQVSLIEGLVFSLNVPTINLGMSLGLDSVADAIKALGYQQKLKMRPSVLLGAVNMSPLEINQLYLAIANNGYYQKTHTITKILSSNNETLWQKQQSSEQRLSSNAAYLLDYALERVTQVGTARSLTWRLNNKKVAGKTGTSNALRDSWFIGYDSKHLITTWLGKDNNKPTGLTGSSGALPLFADFINKQGVINKVEAK | failed |
| GGEVHAAWHLRYAGRDFFVKCDERELLPGFTAEADQLELLSRSKTVTVPKVWAVGADRDYSFLVMDYLPPRPLDAHSAFILGQQIARLHQWSDQPQFGLDFDNALSTTPQPNTWQRRWSTFFAEQRIGWQLELAAEKGIAFGNIDAIVEHIQQRLASHQPQPSLLHGDLWSGNCALGPDGPYIFDPACYWGDRECDLAMLPLHTEQ | failed |
| GKIEEVVLGATKADGGTREYTVTLGGERSLAFYTFDAPQPHLPAIAIDVFDRRPMLAKAVRMHYEDVLDNPAEWARKCVKKFGADLVTLHLISTDPLLDDTPASEAVKVLEDVLQAVKCPIIVGGSGNKEKDPEVLEKAAEVAEGERIMLASATLDMDWERIANAAKKYGHVVLSWTQMDINNQKTLNRYLLKRVEMPRDSIVMDPTTAALGYGLDYAFTNMERIRISGLKGDTDLNFPISSGTTNAWGAREAWMVDSPIEEDTPWGPRELRGPIWEIITGLTLSLAGVDLFMMMHPVAVAVLKEVFNTLGGKVSGGVADPGEWIFME | failed |
| GKPKTDTDFQTYNGDGFKLQIPSKWNPNKEVEYPGQVLRFEDNFDATSNVIVAITPTDKKSITDFGSPEQFLSQVDYLLGRQAYSGKTDSEGGFESDAVAIANVLETSTAEVGGKQYYYLSILTRTADGNEGGKHQLVTATVNDGKLYICKAQAGDKRWFKGAKKFVENTATSFSLA | not failed |
| GLDTGALDQQQNNNGRESIRTVNVSVNNAVTKIVSNMSPAVVGVVNIQKSDIWGESGEAGSGSGVIYKKNDHSAYVVTNHHVIEGASQIEISLKDGSRVSADLVGSDQLMDLAVLRVKSDKIKAVADFGNSDKVKSGEPVIAIGNPLGLEFAGSVTQGVISGTERAIPVDSNGDGQPDWNAEVLQTDAAINPGNSGGALLNMDGKVIGINSMKIAESAVEGIGLSIPSKLVIPVIEDLERYGKVKRPFLGIEMKSLSDIASYHWDETLKLPKNVTNGAVVMGVDAFSPAGKAGLKELDVITEFDGYKVNDIVDLRKRLYQKKVGDRVKVKFYRGGKEKSVDIKLSSA | failed |
| GLEVTVWNRSAAACEPLVALGAARAEEVGELFGLDVVISMLADDQAIRGVLLDSGALERARPGLIHLSMSTLSLDCVEALDQAHQRQGLAFVAAPVFGRTDVAEAGKLNIVVGGPEEAIEQVKALLEIMGQKTWFFGKDPRGAMAVKISGNFMIASAIESMGESVALVKRLGVEPGRFMELMSSTLFDAPVYRNYGPQIVEQRFTPARFRLVLGLKDVDLALSAGKRHNVPLPLASLLHDVLLEAIAHGDGESDWTALAKVALSRSGQI | failed |
| GLNHMTARYLREEHHMFRAAFRKFLEKEAYPHYNDWEKRGIIPRSFWAKMGENGFLCPWVDEKYGGLNADFAYSVVINEELEKVGSSLVGIGLHNDIVTPYIASYGTEEQKQKWLPKCVTGELITAIAMTEPGAGSDLANISTTAVKDGDYYIVNGQKTFITNGIHADLIVVACKTDPQAKPPHRGISLLVVERDTPGFTRGRKLEKVGLHAQDTAELFFQDAKVPAYNLLGEEGKGFYYLMEKLQQERLVVAIAAQTAAEVMFSLTKQYVKQRTAFGKRVSEFQTVQFRLAEMATEIALGRTFVDRVIEEHMAGKQIVTEVSMAKWWITEMAKRVAAEAMQLHGGYGYMEEYEIARRYRDIPVSAIYAGTNEMMKTIIARQLDL | not failed |
| GLTTLIEMIETLSATRTINEVADVVRGAARRILDADGVAFVMRDKDLCWYVDEDAIGPLWKGKRFPMDQCVAGRVMKSGRVVVCPDIYADPDMPHDAYRPTFVKSLAIAPVRPRDPIAAIAVYWARPYDPPPEVLRKLQVVARATASALESGRLNDYLAASLEHGHFLLRELD | failed |
| GMKTSGKQDEAWIMSRLIKQLTDMGFPREPAEEALKSNNMNLDQAMSALLEKKVDVDKRGLGVTDHNGMAAK | not failed |
| GMNSGKVAFIVTKNGKRICDVIDECSQRGSTILKAQGGYKQDDIQVVMCACNSKEMYQVRKSVKDTDPDSFIVVVESHEVHGEGFKMTNIGEAEN | failed |
| GPLGSMIVFVRFNSSHGFPVEVDSDTSIFQLKEVVAKRQGVPADQLRVIFAGKELRNDWTVQNCDLDQQSIVHIVQRPWRK | not failed |
| GPSRMRHERVVIIKNMFHPMDFEDDPLVLNEIREDLRVECSKFGQIRKLLLFDRHPDGVASVSFRDPEEADYCIQTLDGRWFGGRQITAQAWDGTTDYQ | not failed |
| GPSSSHTVGPMLAANAFLQLLEQKNLFDKTQRVKVELYGSLALTGKGHGTDKAILNGLENKAPETVDPASMIPRMHEILDSNLLNLAGKKEIPFHEATDFLFLQKELLPKHSNGMRFSAFDGNANLLIEQVYYSIGGGFITTEEDFDK | not failed |
| GRPDGPVRTKKLKRGRPGRKKKKVLGCPAVAGEEEVDGYETDHQDYCEVCQQGGEIILCDTCPRAYHLVCLDPELDRAPEGKWSCPHCEKEGVQ | failed |
